These results are taken from the Immune Epitope Database (IEDB).

One assay has as its target HLA-A*24:02. Kind of assay: IEDB peptide-MHC binding, purified MHC/competitive/fluorescence; ≥ and ≤ were set here for values at or beyond the usual limits of such assays. Conditions: source organism: Zaire ebolavirus.
In assay [1] the target is HLA-B*15:01. Described as above. Conditions: source organism: Zaire ebolavirus.
In assay [2] the target is HLA-A*02:01. The assay is described as above. The note with it: source organism: Zaire ebolavirus.
For assay [3], the target named is HLA-B*07:02. Described as above. The note with it: source organism: Zaire ebolavirus.
The target of assay [4] is HLA-B*15:01. The experiment in a line: IEDB peptide-MHC binding, purified MHC/competitive/fluorescence; filed as Kd, often an IC50 or EC50 that approximates it; ≥ and ≤ were set here for values at or beyond the usual limits of such assays.
Assay [5] addresses HLA-A*26:01. The assay is described as above.
Another assay deals with HLA-A*02:12. Described as above.
Another assay deals with HLA-A*69:01. The description is as above.
In a further assay the target is HLA-A*02:03. The description is as above.
In assay [6] the target is HLA-B*18:01. The assay is described as above.
The target in assay [7] is HLA-A*68:02. The description is as above.
Assay [8] addresses HLA-A*02:01. The assay is described as above.
A further assay deals with HLA-B*39:01. Described as above.
Assay [9] has as its target HLA-B*57:01. The assay is described as above.
Assay [10] concerns the target HLA-A*03:01. Described as above.
For assay [11], the target named is HLA-B*46:01. The description is as above.
The next assay concerns the target HLA-A*02:11. The assay is described as above.
Another assay deals with HLA-B*51:01. The assay is described as above.
The next assay addresses HLA-A*02:16. Described as above.
A further assay deals with HLA-B*27:03. The description is as above.
The target in a further assay is HLA-A*02:19. The description is as above.
For the next assay, the target named is HLA-B*15:17. The description is as above. Conditions: source organism: Vibrio vulnificus YJ016.
The target of assay [12] is HLA-A*29:02. Described as above. Conditions: source organism: Entamoeba histolytica HM-1:IMSS.
Assay [13] addresses HLA-A*26:01. The experiment in a line: IEDB peptide-MHC binding, purified MHC/direct/fluorescence; filed as Kd, often an IC50 or EC50 that approximates it; ≥ and ≤ were set here for values at or beyond the usual limits of such assays. Conditions: source organism: Influenza A virus (A/goose/Hong Kong/8/1976(H1N1)).
In the next assay the target is HLA-A*26:02. The description is as above. The note with it: source organism: Influenza B virus (B/Beijing/184/93).
Assay [14] deals with HLA-A*29:02. The assay is described as above. Conditions: source organism: Zaire ebolavirus.
For a further assay, the target named is HLA-A*11:01. The description is as above. Conditions: source organism: Zaire ebolavirus.
In the next assay the target is HLA-A*23:01. The description is as above. Conditions: source organism: Zaire ebolavirus.
The target in assay [15] is HLA-B*08:01. The description is as above. Conditions: source organism: Zaire ebolavirus.
Assay [16] has as its target HLA-B*18:01. The description is as above. Conditions: source organism: Zaire ebolavirus.
For assay [17], the target named is HLA-A*68:02. The description is as above. Conditions: source organism: Zaire ebolavirus.
The target of another assay is HLA-B*27:05. The description is as above. Conditions: source organism: Zaire ebolavirus.
The target of the next assay is HLA-B*44:02. The assay is described as above. The note with it: source organism: Zaire ebolavirus.
The target of assay [18] is HLA-B*57:01. Described as above. The note with it: source organism: Zaire ebolavirus.
For assay [19], the target named is HLA-B*07:02. The assay is described as above. The note with it: source organism: Zaire ebolavirus.
The target of assay [20] is HLA-A*03:01. The assay is described as above. Conditions: source organism: Zaire ebolavirus.
Assay [21] deals with HLA-B*46:01. Described as above. Conditions: source organism: Zaire ebolavirus.
In another assay the target is HLA-A*01:01. Described as above. The note with it: source organism: Zaire ebolavirus.
Assay [22] addresses HLA-B*08:01. Kind of assay: IEDB peptide-MHC binding, purified MHC/competitive/fluorescence; ≥ and ≤ were set here for values at or beyond the usual limits of such assays. The note with it: source organism: Zaire ebolavirus.
[23] abbreviates: source organism: Campylobacter jejuni subsp. jejuni NCTC 11168 = ATCC 700819.
Setting [24] is: source organism: Vibrio vulnificus YJ016.
[25] abbreviates: source organism: Cryptosporidium parvum Iowa II.
The mark [26] stands for this setting: source organism: Entamoeba histolytica HM-1:IMSS.
[27] abbreviates: source organism: Zaire ebolavirus.

Where only a bound is given, the exact number is not on record here.

Turning to AAVSHLTTL, the IC50 with HLA-A*24:02 was 2.25 µM; with HLA-B*15:01 [1], 16.5 µM; in the assay with HLA-A*02:01 [2] it was 1.05 µM; with HLA-B*07:02 [3] it was 21.7 µM.
For the sequence AELIDSFTW, the Kd with HLA-B*15:01 [4] (setting [23]) was ≥ 20 µM; in the assay with HLA-A*26:01 [5] (setting [23]) it was ≥ 20 µM; in the assay with HLA-A*02:12 (setting [23]), ≥ 20 µM; with HLA-A*69:01 (setting [23]) it was ≥ 20 µM; with HLA-A*02:03 (setting [23]), ≥ 20 µM; with HLA-B*18:01 [6] (setting [23]), 0.462 µM. The Kd in the assay with HLA-A*68:02 [7] (setting [23]), with HLA-A*02:01 [8] (setting [23]), with HLA-B*39:01 (setting [23]), in the assay with HLA-B*57:01 [9] (setting [23]), with HLA-A*03:01 [10] (setting [23]) and with HLA-B*46:01 [11] (setting [23]) was ≥ 20 µM in each case. In addition, the Kd in the assay with HLA-A*02:11 (setting [23]), with HLA-B*51:01 (setting [23]), with HLA-A*02:16 (setting [23]), with HLA-B*27:03 (setting [23]) and with HLA-A*02:19 (setting [23]) was ≥ 20 µM throughout.
DFISMYFPW: the Kd with HLA-B*15:01 [4] (setting [24]), with HLA-A*26:01 [5] (setting [24]), with HLA-B*15:17, with HLA-A*02:12 (setting [24]), with HLA-A*69:01 (setting [24]) and with HLA-A*02:03 (setting [24]) was ≥ 20 µM in each case. Besides, the Kd in the assay with HLA-B*18:01 [6] (setting [24]) was 0.946 µM; with HLA-A*68:02 [7] (setting [24]), ≥ 20 µM; with HLA-A*02:01 [8] (setting [24]), ≥ 20 µM; with HLA-B*39:01 (setting [24]), ≥ 20 µM; in the assay with HLA-B*57:01 [9] (setting [24]), ≥ 20 µM; with HLA-A*03:01 [10] (setting [24]), ≥ 20 µM. Also, the Kd with HLA-B*46:01 [11] (setting [24]), in the assay with HLA-A*02:11 (setting [24]), with HLA-B*51:01 (setting [24]), with HLA-A*02:16 (setting [24]), in the assay with HLA-B*27:03 (setting [24]) and with HLA-A*02:19 (setting [24]) was ≥ 20 µM in each case.
On to ENTNTSKST, for which the IC50 with HLA-B*07:02 [3] was ≥ 200 µM.
For the sequence FLYPSWSLY, the Kd with HLA-A*69:01 (setting [25]) was ≥ 20 µM; in the assay with HLA-A*02:01 [8] (setting [25]), 0.169 µM; with HLA-B*39:01 (setting [25]), ≥ 20 µM; with HLA-B*57:01 [9] (setting [25]), ≥ 20 µM; with HLA-A*02:16 (setting [25]) it was 0.101 µM; in the assay with HLA-B*27:03 (setting [25]), ≥ 20 µM. Further, the Kd with HLA-A*02:19 (setting [25]) is ≥ 20 µM.
KTRMEDYYL: the dissociation constant (Kd) with HLA-B*15:01 [4] (setting [26]), in the assay with HLA-A*29:02 [12], with HLA-A*26:01 [5] (setting [26]), in the assay with HLA-A*02:12 (setting [26]), in the assay with HLA-A*02:03 (setting [26]) and with HLA-B*18:01 [6] (setting [26]) was ≥ 20 µM throughout. For the same sequence, the Kd is ≥ 20 µM with HLA-A*02:01 [8] (setting [26]); ≥ 20 µM with HLA-B*39:01 (setting [26]); 0.151 µM with HLA-B*57:01 [9] (setting [26]); ≥ 20 µM with HLA-A*03:01 [10] (setting [26]); ≥ 20 µM in the assay with HLA-B*46:01 [11] (setting [26]); ≥ 20 µM in the assay with HLA-B*51:01 (setting [26]). Besides, the Kd in the assay with HLA-B*27:03 (setting [26]) and with HLA-A*02:19 (setting [26]) was ≥ 20 µM in each case.
As for LSPGMMMGM, the values for the equilibrium dissociation constant (Kd) with HLA-A*26:01 [13] and with HLA-A*26:02 were ≥ 20 µM and 0.319 µM, respectively.
For RLAKLTEAI, the Kd with HLA-A*29:02 [14] is ≥ 20 µM; with HLA-A*11:01, ≥ 20 µM; with HLA-A*23:01, ≥ 20 µM; with HLA-B*08:01 [15], 13.3 µM; in the assay with HLA-B*18:01 [16], ≥ 20 µM; in the assay with HLA-A*68:02 [17], ≥ 20 µM. Besides, the Kd with HLA-B*27:05, with HLA-B*44:02, in the assay with HLA-B*57:01 [18], with HLA-B*07:02 [19], with HLA-A*03:01 [20] and with HLA-B*46:01 [21] was ≥ 20 µM in each case. The equilibrium dissociation constant (Kd) with HLA-A*01:01, with HLA-A*26:01 [5] (setting [27]), in the assay with HLA-A*69:01 (setting [27]), with HLA-B*39:01 (setting [27]) and with HLA-B*27:03 (setting [27]) was ≥ 20 µM in each case. Besides, the IC50 with HLA-A*24:02 was 1.43 µM; with HLA-B*15:01 [1], 48 µM; with HLA-B*08:01 [22] it was ≥ 182 µM; with HLA-A*02:01 [2], 14.9 µM; with HLA-B*07:02 [3] it was ≥ 217 µM.
Consider RRTRREAIV, for which the IC50 in the assay with HLA-A*24:02 was 63.3 µM; in the assay with HLA-A*02:01 [2] it was ≥ 5060 µM; with HLA-B*07:02 [3] it was 37.7 µM.
